# According to patent publication US20240158799, “[…] THAT […] BIND TO A SARS-COV-2 VIRUS NUCLEOCAPSID PROTEIN” (IQ SCIENCE LIMITED, published 2024):
# B1: N06 (ssDNA)
# DNA: TAACCACATAACCGCAAGATCCCGATAGACCCGCGTCTCATGTACCTTACATGCTACGATATTGTGCTACTCTCCTCGT
# B2: N08 (ssDNA)
# DNA: TAACCACATAACCGCAAGACCACACGCACGAAAACAATTGACATGAAATTTACGGCTCTTATTGTGCTACTCTCCTCGT
# B3: N11 (ssDNA)
# DNA: TAACCACATAACCGCAAGACGACGCGATACAAAACACTACTAATCTCTCGTCGCACTAGTATTGTGCTACTCTCCTCGT
# B4: SS18 (ssDNA)
# DNA: TAACCACATAACCGCAAGACCAGCAGAAAACTCAACATAAGCAGCAGTTCGGGCGCTACTATTGTGCTACTCTCCTCGT
# B5: SS12 (ssDNA)
# DNA: TAACCACATAACCGCAAGACGATGGCCGCAACCGAGAAACTATGACGATGGATCACGGCTATTGTGCTACTCTCCTCGT
# B6: SS20 (ssDNA)
# DNA: TAACCACATAACCGCAAGACGAACACCGATGCCGCGCACAATCGTGTAAACGGATGTCCTATTGTGCTACTCTCCTCGT
# B7: SS04 (ssDNA)
# DNA: TAACCACATAACCGCAAGACGAACGAACCATATAACGCGTAGTAACATCCAAGGCGCCCTATTGTGCTACTCTCCTCGT
# B8: SS10 (ssDNA)
# DNA: TAACCACATAACCGCAAGACGCACGCAAAACTTTCAGTAATCCTAAGATGCCATGTTACTATTGTGCTACTCTCCTCGT
# B9: SS48 (ssDNA)
# DNA: TAACCACATAACCGCAAGACGACGACACAAAAGCATTTCGGCAATCCGACAGTGGTCCATATTGTGCTACTCTCCTCGT
# Molecular target: SARS-CoV-2 nucleocapsid protein (SARS-CoV-2, UniProt P0DTC9 P0DTC9:1-419)
row,Binder,Kd
1,B1,25.1 nM
2,B2,18.7 nM
3,B3,29.6 nM

# Molecular target: SARS-CoV-2 spike protein (S1/S2 complex) (SARS-CoV-2, UniProt P0DTC2 P0DTC2:14-1213)
row,Binder,binding result
1,B4,binds
2,B5,binds
3,B6,binds
4,B7,binds
5,B8,binds
6,B9,binds
